From US20120039802A1 (published 2012)
Ends that are not written are not given here.

biological target: T1, cMet-Fc fusion protein (extracellular domain of the cMet receptor expressed as an Fc-fusion protein) (human, UniProt P08581 25-932); experiment: phage ELISA on cMet-Fc, competitor HGF 100 ng/mL
T1 construct: extracellular domain; also called soluble cMet-Fc-fusion protein; soluble cMet receptor; not shown: Fc part
Procedure: (§1) These assays were conducted using the peptide-displaying phage discovered from the initial selection and screening campaigns using the first generation peptide libraries. Briefly, 96-well plates were coated overnight at 4 C with 0.5 μg/mL of cMet-Fc fusion protein or TRAIL-Fc fusion protein (background). The plates were blocked for 2 hours at 37 C with 3% BSA in PBST. […] This was followed by an addition of 30 μL of peptide-displaying phage overnight culture to each well. The plates were incubated for 2 hours at room temperature, washed with PBST and cMet-binding peptide-displaying phage was detected using an HRP-conjugated anti-M13 antibody.

T1 sequence (P08581 25-932): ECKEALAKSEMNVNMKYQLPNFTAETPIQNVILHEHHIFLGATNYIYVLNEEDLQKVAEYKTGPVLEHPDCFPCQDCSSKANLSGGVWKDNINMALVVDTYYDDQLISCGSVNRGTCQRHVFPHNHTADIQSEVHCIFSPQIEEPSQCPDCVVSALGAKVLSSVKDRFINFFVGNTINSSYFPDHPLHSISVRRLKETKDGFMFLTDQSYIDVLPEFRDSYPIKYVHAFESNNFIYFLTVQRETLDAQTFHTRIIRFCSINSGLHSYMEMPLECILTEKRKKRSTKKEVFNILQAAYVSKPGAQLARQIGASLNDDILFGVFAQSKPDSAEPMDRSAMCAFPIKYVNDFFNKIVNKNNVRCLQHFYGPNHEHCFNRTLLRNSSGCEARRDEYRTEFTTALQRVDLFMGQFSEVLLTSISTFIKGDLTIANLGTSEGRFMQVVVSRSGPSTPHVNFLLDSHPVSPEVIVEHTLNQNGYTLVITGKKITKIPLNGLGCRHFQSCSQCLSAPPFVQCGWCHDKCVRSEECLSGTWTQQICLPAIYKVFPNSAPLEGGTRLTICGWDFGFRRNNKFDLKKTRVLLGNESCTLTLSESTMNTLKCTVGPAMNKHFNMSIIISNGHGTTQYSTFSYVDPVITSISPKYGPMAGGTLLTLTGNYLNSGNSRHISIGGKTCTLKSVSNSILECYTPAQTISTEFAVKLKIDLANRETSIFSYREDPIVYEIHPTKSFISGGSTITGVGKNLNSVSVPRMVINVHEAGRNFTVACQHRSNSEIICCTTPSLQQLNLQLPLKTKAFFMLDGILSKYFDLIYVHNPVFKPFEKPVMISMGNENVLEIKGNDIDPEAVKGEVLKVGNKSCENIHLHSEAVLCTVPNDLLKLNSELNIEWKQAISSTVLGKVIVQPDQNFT

| Binder | % of binding in the absence of HGF [%] |
| --- | --- |
| AGSIACTGWPYFSCIDLGT [547-H12 peptide-displaying phage (SEQ ID NO: 088)] | 92 |
| AGHGTCRGWPTFECIYFGT [332-A05 peptide-displaying phage (SEQ ID NO: 064)] | 40 |
| AGLPKCSGPPWFSCYYGGT [545-A09 peptide-displaying phage (SEQ ID NO: 066)] | 44 |
| AGTMYCLGPPTFICQQYGT [548-C06 peptide-displaying phage (SEQ ID NO: 084)] | 94 |
| AGEWWCHGPPEFLCYWTGT [331-F01 peptide-displaying phage (SEQ ID NO: 072)] | 77 |
| AGETTCLGWPTFVCVDYGT [548-E08 peptide-displaying phage (SEQ ID NO: 063)] | 102 |
| AGWSDCLGPPQFTCVHWGT [552-A01 peptide-displaying phage (SEQ ID NO: 083)] | 76 |
| AGVNSCLGPPTFECYQMGT [332-C03 peptide-displaying phage (SEQ ID NO: 076)] | 37 |
| GSFILCWWTFCDTNAP [569-C03 peptide-displaying phage (SEQ ID NO: 007)] | 95 |
| AGDIVCTGHPYFECWSWGT [333-C05 peptide-displaying phage (SEQ ID NO: 068)] | 83 |
| AGQFYCSGPPTFQCIMIGT (not fully specified (bridges); cysteine pairing not given here) [550-F11 peptide-displaying phage (SEQ ID NO: 089)] | 58 |
| AGSTDCRGHPTFECWGWGT [549-F06 peptide-displaying phage (SEQ ID NO: 086)] | 96 |
| AGDWHCQGPPAFMCWMIGT [330-C01 peptide-displaying phage (SEQ ID NO: 065)] | 58 |
| AGHWICVGPPTFSCQWHGT [330-G09 peptide-displaying phage (SEQ ID NO: 071)] | 42 |
| AGNYWCSGPPSFICHAVGT [549-D02 peptide-displaying phage (SEQ ID NO: 091)] | 47 |

biological target: T2, human cMet expressed on 3T3 cells (human, UniProt P08581 25-1390); experiment: whole cell phage ELISA, 3T3 human cMet vs 3T3
T2 construct: whole, on cells; cells fixed with glutaraldehyde; also called cell surface-expressed human cMet; 3T3 cells that over-express human cMet
T2 sequence (P08581 25-1390): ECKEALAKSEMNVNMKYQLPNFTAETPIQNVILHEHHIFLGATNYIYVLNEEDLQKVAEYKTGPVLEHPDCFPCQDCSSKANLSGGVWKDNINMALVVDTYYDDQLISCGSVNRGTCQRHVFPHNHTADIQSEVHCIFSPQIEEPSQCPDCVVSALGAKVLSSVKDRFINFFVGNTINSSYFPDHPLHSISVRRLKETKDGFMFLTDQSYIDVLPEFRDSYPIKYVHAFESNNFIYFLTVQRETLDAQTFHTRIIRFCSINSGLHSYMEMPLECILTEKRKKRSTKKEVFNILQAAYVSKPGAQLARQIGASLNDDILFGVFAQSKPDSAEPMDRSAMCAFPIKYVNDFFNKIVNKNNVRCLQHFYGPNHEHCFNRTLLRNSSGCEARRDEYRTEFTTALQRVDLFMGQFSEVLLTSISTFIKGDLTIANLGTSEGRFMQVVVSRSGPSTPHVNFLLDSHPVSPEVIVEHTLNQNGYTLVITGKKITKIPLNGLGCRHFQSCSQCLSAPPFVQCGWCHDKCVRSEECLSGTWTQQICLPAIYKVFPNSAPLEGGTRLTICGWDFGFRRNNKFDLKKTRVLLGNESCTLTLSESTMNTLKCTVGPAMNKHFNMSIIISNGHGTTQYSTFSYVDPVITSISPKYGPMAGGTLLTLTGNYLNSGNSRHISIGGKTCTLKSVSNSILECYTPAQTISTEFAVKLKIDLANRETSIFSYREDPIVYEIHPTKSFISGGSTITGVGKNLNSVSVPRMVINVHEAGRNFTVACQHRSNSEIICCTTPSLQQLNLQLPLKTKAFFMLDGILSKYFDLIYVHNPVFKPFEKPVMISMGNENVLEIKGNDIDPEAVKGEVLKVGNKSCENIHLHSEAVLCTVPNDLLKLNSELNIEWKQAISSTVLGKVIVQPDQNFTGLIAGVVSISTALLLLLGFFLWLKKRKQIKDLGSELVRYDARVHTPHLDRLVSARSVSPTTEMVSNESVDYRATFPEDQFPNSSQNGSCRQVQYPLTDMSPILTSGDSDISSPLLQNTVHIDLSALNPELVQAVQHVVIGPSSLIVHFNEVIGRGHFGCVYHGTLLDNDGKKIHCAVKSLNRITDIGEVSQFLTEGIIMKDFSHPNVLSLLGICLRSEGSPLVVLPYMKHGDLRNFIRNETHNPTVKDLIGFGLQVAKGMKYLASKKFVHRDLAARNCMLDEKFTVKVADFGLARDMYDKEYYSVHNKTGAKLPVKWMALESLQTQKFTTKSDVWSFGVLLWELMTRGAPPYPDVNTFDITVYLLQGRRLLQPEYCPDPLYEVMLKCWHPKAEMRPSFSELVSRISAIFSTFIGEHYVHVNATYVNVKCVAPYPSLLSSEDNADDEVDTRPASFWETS
Procedure: Whole cell ELISAs were performed using 3T3 cells that over-express human cMet. […] Briefly, 96-well plates were seeded with 10⁵ cells per well. The plates were centrifuged for 5 minutes at 1600 rpm to pellet the cells. The resulting cell layer was fixed with 0.1% (v/v) glutaraldehyde for 12 minutes at 37 C. […] Peptide-displaying phage also were blocked in the above solution for 1 hour at 37 C. 100 μL of blocked phage was then added to each well and the plates were incubated for 1 hour at room temperature. The plates were washed with PBST. cMet-binding peptide-displaying phage were detected using an HRP-conjugated anti-M13 antibody.

| Binder | WC ELISA (fold over background) [fold] |
| --- | --- |
| AGSIACTGWPYFSCIDLGT [547-H12 peptide-displaying phage (SEQ ID NO: 088)] | 1.1 |
| AGHGTCRGWPTFECIYFGT [332-A05 peptide-displaying phage (SEQ ID NO: 064)] | 1.4 |
| AGLPKCSGPPWFSCYYGGT [545-A09 peptide-displaying phage (SEQ ID NO: 066)] | 1.3 |
| AGTMYCLGPPTFICQQYGT [548-C06 peptide-displaying phage (SEQ ID NO: 084)] | 1.23 |
| AGEWWCHGPPEFLCYWTGT [331-F01 peptide-displaying phage (SEQ ID NO: 072)] | 1.47 |
| AGETTCLGWPTFVCVDYGT [548-E08 peptide-displaying phage (SEQ ID NO: 063)] | 1.27 |
| AGWSDCLGPPQFTCVHWGT [552-A01 peptide-displaying phage (SEQ ID NO: 083)] | 1.33 |
| AGVNSCLGPPTFECYQMGT [332-C03 peptide-displaying phage (SEQ ID NO: 076)] | 1.2 |
| GSFILCWWTFCDTNAP [569-C03 peptide-displaying phage (SEQ ID NO: 007)] | 1.3 |
| AGDIVCTGHPYFECWSWGT [333-C05 peptide-displaying phage (SEQ ID NO: 068)] | 1.33 |
| AGQFYCSGPPTFQCIMIGT (not fully specified (bridges); cysteine pairing not given here) [550-F11 peptide-displaying phage (SEQ ID NO: 089)] | 1.23 |
| AGSTDCRGHPTFECWGWGT [549-F06 peptide-displaying phage (SEQ ID NO: 086)] | 1.3 |
| AGDWHCQGPPAFMCWMIGT [330-C01 peptide-displaying phage (SEQ ID NO: 065)] | 1.3 |
| AGHWICVGPPTFSCQWHGT [330-G09 peptide-displaying phage (SEQ ID NO: 071)] | 1.4 |
| AGNYWCSGPPSFICHAVGT [549-D02 peptide-displaying phage (SEQ ID NO: 091)] | 1.27 |

biological target: T1, cMet-Fc fusion protein (extracellular …); experiment: phage ELISA on cMet-Fc, competitor HGF 500 ng/mL
Procedure: as §1

| Binder | % of binding in the absence of HGF [%] |
| --- | --- |
| AGSIACTGWPYFSCIDLGT [547-H12 peptide-displaying phage (SEQ ID NO: 088)] | 81 |
| AGHGTCRGWPTFECIYFGT [332-A05 peptide-displaying phage (SEQ ID NO: 064)] | 21 |
| AGLPKCSGPPWFSCYYGGT [545-A09 peptide-displaying phage (SEQ ID NO: 066)] | 22 |
| AGTMYCLGPPTFICQQYGT [548-C06 peptide-displaying phage (SEQ ID NO: 084)] | 77 |
| AGEWWCHGPPEFLCYWTGT [331-F01 peptide-displaying phage (SEQ ID NO: 072)] | 73 |
| AGETTCLGWPTFVCVDYGT [548-E08 peptide-displaying phage (SEQ ID NO: 063)] | 50 |
| AGWSDCLGPPQFTCVHWGT [552-A01 peptide-displaying phage (SEQ ID NO: 083)] | 81 |
| AGVNSCLGPPTFECYQMGT [332-C03 peptide-displaying phage (SEQ ID NO: 076)] | 95 |
| GSFILCWWTFCDTNAP [569-C03 peptide-displaying phage (SEQ ID NO: 007)] | 89 |
| AGDIVCTGHPYFECWSWGT [333-C05 peptide-displaying phage (SEQ ID NO: 068)] | 66 |
| AGQFYCSGPPTFQCIMIGT (not fully specified (bridges); cysteine pairing not given here) [550-F11 peptide-displaying phage (SEQ ID NO: 089)] | 23 |
| AGSTDCRGHPTFECWGWGT [549-F06 peptide-displaying phage (SEQ ID NO: 086)] | 40 |
| AGDWHCQGPPAFMCWMIGT [330-C01 peptide-displaying phage (SEQ ID NO: 065)] | 43 |
| AGHWICVGPPTFSCQWHGT [330-G09 peptide-displaying phage (SEQ ID NO: 071)] | 26 |
| AGNYWCSGPPSFICHAVGT [549-D02 peptide-displaying phage (SEQ ID NO: 091)] | 36 |

biological target: T1, cMet-Fc fusion protein (extracellular …); experiment: phage ELISA, cMet-Fc vs TRAIL-Fc
Procedure: Protein phage ELISAs using peptide-displaying phage isolates from the various selection campaigns were performed to determine specificity of the peptides for cMet versus an unrelated Fc-fusion protein (TRAIL-Fe). Briefly, 384-well plates were coated overnight at 4 C with 0.5 μg/mL of cMet-Fc fusion protein or TRAIL-Fc fusion protein (background). The plates were blocked for 2 hours 37 C with 3% (w/v) BSA in PBS containing 0.05% (v/v) Tween-20 (PBST). The plates were washed with PBST and 100 μL of peptide-displaying phage were added to each well. The plates were incubated for 2 hours at room temperature and washed with PBST. cMet-binding peptide-displaying phage were detected using an HRP-conjugated anti-M13 antibody.

| Binder | Protein ELISA (fold over background) [fold] |
| --- | --- |
| AGSIACTGWPYFSCIDLGT [547-H12 peptide-displaying phage (SEQ ID NO: 088)] | 5.6 |
| AGHGTCRGWPTFECIYFGT [332-A05 peptide-displaying phage (SEQ ID NO: 064)] | 6 |
| AGLPKCSGPPWFSCYYGGT [545-A09 peptide-displaying phage (SEQ ID NO: 066)] | 13.5 |
| AGTMYCLGPPTFICQQYGT [548-C06 peptide-displaying phage (SEQ ID NO: 084)] | 13 |
| AGEWWCHGPPEFLCYWTGT [331-F01 peptide-displaying phage (SEQ ID NO: 072)] | 12.6 |
| AGETTCLGWPTFVCVDYGT [548-E08 peptide-displaying phage (SEQ ID NO: 063)] | 5.3 |
| AGWSDCLGPPQFTCVHWGT [552-A01 peptide-displaying phage (SEQ ID NO: 083)] | 3.9 |
| AGVNSCLGPPTFECYQMGT [332-C03 peptide-displaying phage (SEQ ID NO: 076)] | 5.7 |
| GSFILCWWTFCDTNAP [569-C03 peptide-displaying phage (SEQ ID NO: 007)] | 3.4 |
| AGDIVCTGHPYFECWSWGT [333-C05 peptide-displaying phage (SEQ ID NO: 068)] | 6.3 |
| AGQFYCSGPPTFQCIMIGT (not fully specified (bridges); cysteine pairing not given here) [550-F11 peptide-displaying phage (SEQ ID NO: 089)] | 12.4 |
| AGSTDCRGHPTFECWGWGT [549-F06 peptide-displaying phage (SEQ ID NO: 086)] | 5.2 |
| AGDWHCQGPPAFMCWMIGT [330-C01 peptide-displaying phage (SEQ ID NO: 065)] | 4.7 |
| AGHWICVGPPTFSCQWHGT [330-G09 peptide-displaying phage (SEQ ID NO: 071)] | 13.5 |
| AGNYWCSGPPSFICHAVGT [549-D02 peptide-displaying phage (SEQ ID NO: 091)] | 8.9 |
